Test results: the supplement of paper PMC12764529
± gives the half width of the 95% confidence interval.

Assay: folding stability dG unfold (combined trypsin and chymotrypsin); higher = more stable
Outline: (§1)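 Bayesian fitting of sequencing counts gave K50 for each design. Unfolding free energy followed by setting this against a sequence-predicted unfolded-state K50 and a shared folded-state K50, either per protease or with trypsin and chymotrypsin combined. The designs, under 80 residues and lacking cysteine, were digested in a PA-tagged cDNA display format at 11 threefold-diluted protease concentrations and without protease, and only those with AlphaFold2 dimer inter-PAE above 15 were kept.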

Question: With “SAGGMVIVVKTKEEAKKALEELLKKLFPDLKIKKIEIKEVEVEVKKKDGKKVKKKKFIVVKIEIEKESAGGS [r16_267_TrROS_Hall]” as the sequence, how does the “folding stability dG unfold” value read?
Answer: The value was 3.05 ± 0.13 kcal/mol.

Question: For “SAGGSAGGSAGGSGPSVTVSTTTLPPLPVTVETVTVGDTTVLVVFTPEGGSAVVPSGALSAGGSAGGSAGGS [r4_256_JUSTAS]”, which “folding stability dG unfold” value is on record?
Answer: The value was 1.4 ± 0.087 kcal/mol.

Question: For “SAGGMEKAIKEIKEAAKKGEEAVIVLPKNVDPSELISAIEKETGAKVEPLEVKPLPNGELVIKIKVKSAGGS [r16_318_TrMRF]”, which “folding stability dG unfold” value is on record?
Answer: Its value is 1.89 ± 0.12 kcal/mol.

Question: Which “folding stability dG unfold” value does the source give for “SAGGYLVRIEMPNGREHEYPVKDIDDAASRFRDHLGFPPNMKLKVEVYDPKDGEKKERTLTIPMPKPKSAGG [r13_145_TrROS]” here?
Answer: The value was 0.378 ± 0.069 kcal/mol.

Question: Which “folding stability dG unfold” value does the source give for “SAGGSAGGSAGTITTPTAEFTVTLDPNGTYTVTYQNTTTTVPVGAPFTLPGGEPLTVVPASAGGSAGGSAGG [r11_147_JUSTAS]” here?
Answer: The value was 0.601 ± 0.13 kcal/mol.

Question: With “SAGGSAGGSAGGDWKMIEFYIPIEPDEPITIEIPDGVRIQIWRVDGYYKVTIMIPLEDISAGGSAGGSAGGS [r10_355_TrROS]” as the sequence, how does the “folding stability dG unfold” value read?
Answer: The value was 3.17 ± 0.18 kcal/mol.

Question: Which “folding stability dG unfold” value does the source give for “SAGGSAGGSADNPDDKKKQKPKPEIKVKVEWVVIPNGFLIFEITIAGGITLTIIIPFPPNMFSAGGSAGGSA [r18_192_TrROS]” here?
Answer: Its value is 2.84 ± 0.16 kcal/mol.

Question: With “SAGGSAMQQLDITKTKWDPNTGTLSVTAKDPLTGEVTTYTIPRNGPTLNFPPGAELKSVETEPPPLSAGGSA [r15_959_JUSTAS]” as the sequence, how does the “folding stability dG unfold” value read?
Answer: The value was -0.0792 ± 0.27 kcal/mol.

Question: For “SAGGSASVKVEETVEFLPGGVVKTTTRTFFPDGTVTTTDTVTALPPVPVYDISSPENLSPALERLASAGGSA [r15_1018_JUSTAS]”, which “folding stability dG unfold” value is on record?
Answer: Its value is 0.909 ± 0.052 kcal/mol.

Question: For “SASSSSSSYNVTIDPATGTVTVTNPDGSTTTVPPGSTLTVTSTSSDGGSALGSSTPSTSTTTIPVPAGTSAG [r14_366_JUSTAS]”, which “folding stability dG unfold” value is on record?
Answer: Its value is 0.919 ± 0.071 kcal/mol.

Question: With “SMKPGDTVIVKIEIEKKVDGKTVKKTIEKEIKIKPGETVEIELKGLPKGAKVRVEIFNADGKLIEEKELPSA [r9_478_TrROS_Hall]” as the sequence, how does the “folding stability dG unfold” value read?
Answer: The value was 1.8 ± 0.08 kcal/mol.

Question: For “SAGGSAGGSAGGGSMTLELPLPEWSEEEIEALAEELKKKGLKVKEIERDPESDVVRITVESAGGSAGGSAGG [r7_906_JUSTAS]”, which “folding stability dG unfold” value is on record?
Answer: Its value is 2.15 ± 0.11 kcal/mol.

Question: Which “folding stability dG unfold” value does the source give for “SAGGSAGGSAGGSPSETLEVTLADGTRLTVTRNADGSLTVTVEPAPPPPVVVFKSPEELSAGGSAGGSAGGS [r4_120_TrROS_Hall]” here?
Answer: The value was 1.14 ± 0.096 kcal/mol.

Question: Which “folding stability dG unfold” value does the source give for “SAGSMSFELTVDYEKLPDGTYRVRATITIYDPNNNNPLKTVDFEGEATSEEEAEARARARAEEVKEAASAGG [r19_255_JUSTAS]” here?
Answer: Its value is 2.69 ± 0.17 kcal/mol.

Question: With “SAGGSAGGSAWIVIPAEDIKENLDEIEFRNGDGQEYRIKVDVQEHGDRPYVMIDIVPPGQPISAGGSAGGSA [r18_447_TrROS]” as the sequence, how does the “folding stability dG unfold” value read?
Answer: The value was 0.472 ± 0.18 kcal/mol.

Question: For “SAGGSAGGSDFKPVLVIELDDKTVLVFELEDGTVLVLAENEIALIPASIPAEHFPEDAKLDLDSAGGSAGGS [r12_594_TrMRF]”, which “folding stability dG unfold” value is on record?
Answer: Its value is 1.85 ± 0.065 kcal/mol.

Question: Which “folding stability dG unfold” value does the source give for “SAGGSAGGSTVEEIADFFKQQGFTDAEINVMPPPNGRRYVTVRFEMKEPNGNKHKMNFSIWIPSAGGSAGGS [r12_246_TrROS]” here?
Answer: Its value is 2.31 ± 0.34 kcal/mol.

Question: Which “folding stability dG unfold” value does the source give for “SAGGSAGGGEMELVLTVPPEEVTPEQLLELVEEIREALEKGGAKAEPVKIDPEKGVVILFRVDPSAGGSAGG [r6_850_TrMRF]” here?
Answer: Its value is 0.00838 ± 0.26 kcal/mol.

Question: For “SAGGSVTITSITSIDTSSLSPDSVVTADVPDGKPVLIKGKVPPDGSVILTFYTPDGKPVATFTIPSSAGGSA [r2_323_JUSTAS]”, which “folding stability dG unfold” value is on record?
Answer: The value was 0.669 ± 0.06 kcal/mol.

Question: Which “folding stability dG unfold” value does the source give for “SAGGSAGGSMKTLTLEGESEEEAIEKVKEYFKKKGINYKLLKIEISEKPNGTKIYTIDIDTKKSAGGSAGGS [r12_924_JUSTAS]” here?
Answer: Its value is 2.04 ± 0.2 kcal/mol.

Question: For “SAGGGADVISAYDPETVEELSKLPWVTSVTYDPETGRYDIRFERPDGQYNYVVDNVTKEVLEVSPVDSAGGS [r8_251_TrMRF]”, which “folding stability dG unfold” value is on record?
Answer: Its value is 1.3 ± 0.1 kcal/mol.

Question: Which “folding stability dG unfold” value does the source give for “SAGGSMVKLKVTSVSREGNYLTVTAELGNLIVEIRFDEGTDRFEVKVSEKPLVLGEEEIEELAKASSAGGSA [r2_482_TrMRF]” here?
Answer: Its value is 2.08 ± 0.072 kcal/mol.

Question: With “SAGGMKPGEIVEKITIEIEINGKKYKIEMTFYKDNGIIEIKIYNKNGKLIKTFKFYIDPKTKKIILLSAGGS [r16_798_TrROS_Hall]” as the sequence, how does the “folding stability dG unfold” value read?
Answer: Its value is 3.68 ± 0.34 kcal/mol.

Question: For “SAGGKSVKVSLPKEALKKAKENEKVVITLPDGTKREAILVRGGDSVPVFVVNPDNPEEAEYVGEATVGSAGG [r13_745_TrMRF]”, which “folding stability dG unfold” value is on record?
Answer: Its value is -0.0228 ± 0.09 kcal/mol.

Question: Which “folding stability dG unfold” value does the source give for “SAGGMLRVTATVGYAPDDPAVELAKKIAEALTPPGMKVRMKAKVTPLADGTYRIDIEVEIRPPGEPGSAGGS [r16_128_TrMRF]” here?
Answer: Its value is 3.27 ± 0.14 kcal/mol.

Question: For “SAGMTYTEKVFTSEVTLPEIGAKITITTTVKTPPSGETEPTVEVTFDLPETASEEVVKAVLEELNIPVESAG [r5_486_JUSTAS]”, which “folding stability dG unfold” value is on record?
Answer: Its value is 0.628 ± 0.38 kcal/mol.

Question: Which “folding stability dG unfold” value does the source give for “SAGGDEDKPKPKIEPKKEIEIVLPYPEDEVTPEELKARIEEETGEKITEIEVTRIPNSNEYKVKFTVESAGG [r13_457_JUSTAS]” here?
Answer: Its value is 0.577 ± 0.13 kcal/mol.

Question: For “SAGGSAGGSAPPRRVTIEYDPDSGMFKVKVPGGKEREIEGMPPNQIEEQAKDYGIDRVEIVSAGGSAGGSAG [r3_78_TrROS]”, which “folding stability dG unfold” value is on record?
Answer: The value was -0.0794 ± 0.18 kcal/mol.

Question: Which “folding stability dG unfold” value does the source give for “SARVYRLPDGRLVRFEPVPPRPPVIVIPVDFRISPDDPETRRRLAEEIRRRLLEELGLPEDTPIFVDPSSAG [r14_453_TrMRF]” here?
Answer: Its value is 4.16 ± 0.22 kcal/mol.

Question: With “SAGGLGTDSTVPTLTLSVPVLVPTADGSPRELTVRVTIRAPVRLNPPTGELEIGDVEVSVEVFDPSLLSAGG [r13_312_TrMRF]” as the sequence, how does the “folding stability dG unfold” value read?
Answer: The value was 3.37 ± 0.13 kcal/mol.

Question: For “SAGGMMTIEELKKLPPGAKVGDKIKIRNPATGETFTVTVLPDGRIKIEVDGKIYELPPGAEIVEIEKSAGGS [r8_162_TrROS_Hall]”, which “folding stability dG unfold” value is on record?
Answer: Its value is 2.17 ± 0.13 kcal/mol.

Assay: folding stability dG unfold from chymotrypsin proteolysis; higher = more stable
Outline: as §1

Question: With “SAGGMVIVVKTKEEAKKALEELLKKLFPDLKIKKIEIKEVEVEVKKKDGKKVKKKKFIVVKIEIEKESAGGS [r16_267_TrROS_Hall]” as the sequence, how does the “folding stability dG unfold” value read?
Answer: Its value is 3.38 ± 0.13 kcal/mol.

Question: For “SAGGSAGGSAGGSGPSVTVSTTTLPPLPVTVETVTVGDTTVLVVFTPEGGSAVVPSGALSAGGSAGGSAGGS [r4_256_JUSTAS]”, which “folding stability dG unfold” value is on record?
Answer: The value was 0.858 ± 0.02 kcal/mol.

Question: With “SAGGMEKAIKEIKEAAKKGEEAVIVLPKNVDPSELISAIEKETGAKVEPLEVKPLPNGELVIKIKVKSAGGS [r16_318_TrMRF]” as the sequence, how does the “folding stability dG unfold” value read?
Answer: Its value is 2.23 ± 0.16 kcal/mol.

Question: With “SAGGYLVRIEMPNGREHEYPVKDIDDAASRFRDHLGFPPNMKLKVEVYDPKDGEKKERTLTIPMPKPKSAGG [r13_145_TrROS]” as the sequence, how does the “folding stability dG unfold” value read?
Answer: Its value is 0.504 ± 0.12 kcal/mol.

Question: Which “folding stability dG unfold” value does the source give for “SAGGSAGGSAGTITTPTAEFTVTLDPNGTYTVTYQNTTTTVPVGAPFTLPGGEPLTVVPASAGGSAGGSAGG [r11_147_JUSTAS]” here?
Answer: The value was 0.931 ± 0.11 kcal/mol.

Question: Which “folding stability dG unfold” value does the source give for “SAGGSAGGSAGGDWKMIEFYIPIEPDEPITIEIPDGVRIQIWRVDGYYKVTIMIPLEDISAGGSAGGSAGGS [r10_355_TrROS]” here?
Answer: Its value is 3.71 ± 0.083 kcal/mol.

Question: With “SAGGSAGGSADNPDDKKKQKPKPEIKVKVEWVVIPNGFLIFEITIAGGITLTIIIPFPPNMFSAGGSAGGSA [r18_192_TrROS]” as the sequence, how does the “folding stability dG unfold” value read?
Answer: The value was 3.09 ± 0.035 kcal/mol.

Question: Which “folding stability dG unfold” value does the source give for “SAGGSAMQQLDITKTKWDPNTGTLSVTAKDPLTGEVTTYTIPRNGPTLNFPPGAELKSVETEPPPLSAGGSA [r15_959_JUSTAS]” here?
Answer: Its value is -0.368 ± 0.37 kcal/mol.

Question: Which “folding stability dG unfold” value does the source give for “SAGGSASVKVEETVEFLPGGVVKTTTRTFFPDGTVTTTDTVTALPPVPVYDISSPENLSPALERLASAGGSA [r15_1018_JUSTAS]” here?
Answer: The value was 1.16 ± 0.026 kcal/mol.

Question: With “SASSSSSSYNVTIDPATGTVTVTNPDGSTTTVPPGSTLTVTSTSSDGGSALGSSTPSTSTTTIPVPAGTSAG [r14_366_JUSTAS]” as the sequence, how does the “folding stability dG unfold” value read?
Answer: Its value is 0.699 ± 0.091 kcal/mol.

Question: Which “folding stability dG unfold” value does the source give for “SMKPGDTVIVKIEIEKKVDGKTVKKTIEKEIKIKPGETVEIELKGLPKGAKVRVEIFNADGKLIEEKELPSA [r9_478_TrROS_Hall]” here?
Answer: The value was 1.46 ± 0.042 kcal/mol.

Question: With “SAGGSAGGSAGGGSMTLELPLPEWSEEEIEALAEELKKKGLKVKEIERDPESDVVRITVESAGGSAGGSAGG [r7_906_JUSTAS]” as the sequence, how does the “folding stability dG unfold” value read?
Answer: Its value is 2.28 ± 0.078 kcal/mol.

Question: Which “folding stability dG unfold” value does the source give for “SAGGSAGGSAGGSPSETLEVTLADGTRLTVTRNADGSLTVTVEPAPPPPVVVFKSPEELSAGGSAGGSAGGS [r4_120_TrROS_Hall]” here?
Answer: Its value is 0.623 ± 0.14 kcal/mol.

Question: For “SAGSMSFELTVDYEKLPDGTYRVRATITIYDPNNNNPLKTVDFEGEATSEEEAEARARARAEEVKEAASAGG [r19_255_JUSTAS]”, which “folding stability dG unfold” value is on record?
Answer: The value was 2.942 ± 0.023 kcal/mol.

Question: For “SAGGSAGGSAWIVIPAEDIKENLDEIEFRNGDGQEYRIKVDVQEHGDRPYVMIDIVPPGQPISAGGSAGGSA [r18_447_TrROS]”, which “folding stability dG unfold” value is on record?
Answer: Its value is 0.882 ± 0.15 kcal/mol.
